Assay results published in PMC6028955 (The Journal of Biological Chemistry, 2018).

Target: the molecule itself
Test: AUC; sedimentation velocity (4 °C, 49,000 rpm) and sedimentation equilibrium; 25 mM Tris-HCl pH 7.6, 200 mM NaCl, 2 mM TCEP; SE fitted with a single species model

B1: human SSRP1 lacking the C-terminal ID regions and the HMG domain (residues 1–433) (domain or fragment, UniProt Q08945 1-433, looked up)
chain: MAETLEFNDVYQEVKGSMNDGRLRLSRQGIIFKNSKTGKVDNIQAGELTEGIWRRVALGHGLKLLTKNGHVYKYDGFRESEFEKLSDFFKTHYRLELMEKDLCVKGWNWGTVKFGGQLLSFDIGDQPVFEIPLSNVSQCTTGKNEVTLEFHQNDDAEVSLMEVRFYVPPTQEDGVDPVEAFAQNVLSKADVIQATGDAICIFRELQCLTPRGRYDIRIYPTFLHLHGKTFDYKIPYTTVLRLFLLPHKDQRQMFFVISLDPPIKQGQTRYHFLILLFSKDEDISLTLNMNEEEVEKRFEGRLTKNMSGSLYEMVSRVMKALVNRKITVPGNFQGHSGAQCITCSYKASSGLLYPLERGFIYVHKPPVHIRFDEISFVNFARGTTTTRSFDFEIETKQGTQYTFSSIEREEYGKLFDFVNAKKLNIKNRGLKEG
notes: structure-specific recognition protein-1 (SSRP1), human, residues 1–433 (PH1–PH4; lacks ID1, HMG, ID2); Homodimer by sedimentation equilibrium; predicted monomer mass 49.8 kDa; also called hSSRP1ΔCTD; hSSRP1; source: E. coli BL21 (DE3) Gold, purified (Ni-NTA, TEV treatment, anion-exchange, size-exclusion chromatography); not shown: His6, N-terminal, cleaved
stoichiometry N: 2
